From patent US12366576B2, “Compositions, assays, and methods for direct modulation of fatty acid metabolism” (Dana-Farber Cancer Institute, Inc., priority 2016, dated 2025)
Bridge positions count the residues as written; N and C are the ends. Square brackets hold non-standard residues; d marks the D form. Ends that are not written are not given here. Peptide text beside a SMILES is read from it. S5 = C=CCCC[C@](C)(N)C(=O)O

Biological target: T1, native VLCAD (Mus musculus, UniProt P50544)
T1 construct: As for native VLCAD from MEF lysates; endogenous in cells; host or cells: SV-40-transformed wild-type mouse embryonic fibroblasts (lysate)
T1 sequence (P50544 42-656): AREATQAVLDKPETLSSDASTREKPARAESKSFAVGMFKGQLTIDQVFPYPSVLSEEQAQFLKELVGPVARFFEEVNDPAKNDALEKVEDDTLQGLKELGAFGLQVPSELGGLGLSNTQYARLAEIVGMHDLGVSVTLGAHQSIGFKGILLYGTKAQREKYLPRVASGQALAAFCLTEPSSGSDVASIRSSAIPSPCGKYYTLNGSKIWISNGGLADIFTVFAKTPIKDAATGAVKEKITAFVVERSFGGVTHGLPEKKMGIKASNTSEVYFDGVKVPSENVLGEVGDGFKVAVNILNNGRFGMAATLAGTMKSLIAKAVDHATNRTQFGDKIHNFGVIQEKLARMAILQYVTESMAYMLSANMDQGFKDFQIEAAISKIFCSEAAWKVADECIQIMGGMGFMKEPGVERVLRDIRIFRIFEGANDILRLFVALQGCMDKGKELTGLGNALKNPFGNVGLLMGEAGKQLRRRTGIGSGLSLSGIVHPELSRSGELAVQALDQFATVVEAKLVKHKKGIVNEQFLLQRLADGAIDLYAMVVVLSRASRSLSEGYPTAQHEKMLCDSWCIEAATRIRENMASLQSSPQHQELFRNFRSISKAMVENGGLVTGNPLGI
Assay: Biotinylated SAHB pulldown from MEF lysates, anti-VLCAD Western analysis
Type: binding
Conditions: for summary of binding properties: binding to VLCAD: pull-downs and ITC; for best overall binders to VLCAD based on pull-downs and ITC: summary of binding properties
Excerpt: To validate the MS result, the pulldowns were repeated and eluates run on a gel for anti-VLCAD Western blot analysis. […] All peptides faithfully recapitulated native BH3-binding propensities for endogenous MCL-1 protein (FIG. 8). The eluates were then probed for the other members of the acyl-CoA dehydrogenase family that manifest shorter fatty acid substrate specificities. MCL-1 SAHBD was able to pull down VLCAD, but not MCAD or SCAD (FIG. 9). Because the traditional MCL-1 staple location differs from that of the BIM, BID, and BAD SAHBs, it was important to confirm that the observed VLCAD binding specificity was due to BH3 sequence selectivity, not staple position. A BIM SAHB with the traditional MCL-1 staple (BIM SAHBF), and a MCL-1 stapled peptide with the traditional BIM staple (MCL-1 SAHBA), were generated. […] To confirm that the selective interaction between MCL-1 SAHBD and VLCAD is direct, recombinant VLCAD was generated and purified by size exclusion chromatography (FIGS. 11 and 12).
The binding determinants for the MCL-1 BH3/VLCAD interaction were investigated by generating a series of biotinylated MCL-1 SAHBD alanine point mutants (FIG. 18A) and performing streptavidin pull-downs from MEF lysates, followed by VLCAD and MCL-1 western analysis of the resulting eluates. […] Native alanines and residues not mutated are colored white. The dotted semicircles highlight the distinctive MCL-1 BH3 binding interfaces for VLCAD versus MCL-1 engagement, as defined by the differential sensitivities to alanine mutagenesis.
Wild-type MEFs were trypsinized, washed once with cold PBS, and lysed on ice with NP-40 lysis buffer (50 mM Tris, pH 7.4, 150 mM NaCl, 0.5% (v/v) NP-40, complete protease inhibitor pellet (Roche)) using 1 ml of lysis buffer for every 10 million cells lysed. Cellular debris was pelleted at 14,000 g for 10 min at 4° C., and the supernatant was quantified using the BCA Protein Assay Kit (Thermo Fisher Scientific). 2 mg of lysate per pulldown were then exposed to 50 μL of pre-equilibrated High Capacity Streptavidin Agarose beads (Thermo Fisher Scientific). The pre-cleared lysates were then incubated with 15 nmol biotinylated SAHBs (or vehicle, 1.5% (v/v) DMSO) overnight at 4° C., followed by addition of 50 μL of pre-equilibrated High Capacity Streptavidin Agarose beads for 2 hours at 4° C. The beads were then pelleted and washed with NP-40 lysis buffer three times before eluting the protein sample from the beads by heating at 70° C. for 10 min in SDS loading buffer. Samples were then subjected to electrophoresis and either Western analysis or Coomassie stain (SimplyBlue Safe Stain, Thermo Fisher Scientific). The antibodies used for Western analysis were the following: MCL-1 (Rockland 600-401-394; 1:1000 in 3% BSA), VLCAD (Thermo Fisher Scientific PA5-29959; 1:1000 in 1% milk+0.1% Tween-20), MCAD (Thermo Fisher Scientific PA5-27201; 1:1000 in 3% BSA), and SCAD (Abcam ab154823; 1:1000 in 3% BSA). Coomassie stained gels were then processed for proteomics analysis (see below). Biotinylated SAHB pulldowns of recombinant protein were performed as above incubating 5 nmol of SAHB with 10 pmol of rVLCAD in 500 μL total volume. Densitometry analyses were performed using ImageJ software.

summary of binding properties: binding to VLCAD | effect of alanine mutation on biotinylated MCL-1 SAHBD interaction with VLCAD (pull-downs from MEF lysates) | best overall binders to VLCAD based on pull-downs and ITC | Molecule | pull down of VLCAD from cellular lysates (wild-type MEF lysates, 15 nmol biotinylated SAHB)
Does not bind | – | – | F228A: biotinylated MCL-1 SAHBD alanine point mutant F228A (RKALETLRRVGDGV[S5]RNH[S5]TAA; staple 15-19; also: biotinylated, place not given here) | –
Binds | – | Best overall binders to VLCAD | D218A: biotinylated MCL-1 SAHBD alanine point mutant D218A (RKALETLRRVGAGV[S5]RNH[S5]TAF; staple 15-19; also: biotinylated, place not given here) | –

The next lines start with the molecule.

Molecule | summary of binding properties: binding to VLCAD | effect of alanine mutation on biotinylated MCL-1 SAHBD interaction with VLCAD (pull-downs from MEF lysates) | best overall binders to VLCAD based on pull-downs and ITC | pull down of VLCAD from cellular lysates (wild-type MEF lysates, 15 nmol biotinylated SAHB)
MCL-1 SAHBD: hydrocarbon-stapled peptide mimicking the MCL-1 BH3 domain (Stabilized Alpha-Helix of BCL-2 Domain), SEQ ID NO:19 (RKALETLRRVGDGV[S5]RNH[S5]TAF; staple 15-19) | Binds | – | – | VLCAD was detected
L213A: biotinylated MCL-1 SAHBD alanine point mutant L213A (RKALETARRVGDGV[S5]RNH[S5]TAF; staple 15-19; also: biotinylated, place not given here) | Does not bind | disrupted | – | –
R214A: biotinylated MCL-1 SAHBD alanine point mutant R214A (RKALETLARVGDGV[S5]RNH[S5]TAF; staple 15-19; also: biotinylated, place not given here) | Does not bind | – | – | –
R207A: biotinylated MCL-1 SAHBD alanine point mutant R207A (AKALETLRRVGDGV[S5]RNH[S5]TAF; staple 15-19; also: biotinylated, place not given here) | Does not bind | – | – | –
CC(=O)N[C@@H](CCCNC(=N)N)C(=O)N[C@@H](CCCCN)C(=O)N[C@@H](C)C(=O)N[C@@H](CC(C)C)C(=O)N[C@@H](CCC(=O)O)C(=O)N[C@H](C(=O)N[C@@H](CC(C)C)C(=O)N[C@@H](CCCNC(=N)N)C(=O)N[C@@H](CCCNC(=N)N)C(=O)N[C@H](C(=O)NCC(=O)N[C@@H](CC(=O)O)C(=O)NCC(=O)N[C@@H](C)C(=O)N[C@@]1(C)CCCC=CCCC[C@@](C)(C(=O)N[C@H](C(=O)N[C@@H](C)C(=O)N[C@@H](Cc2ccccc2)C(N)=O)[C@@H](C)O)NC(=O)[C@H](Cc2c[nH]cn2)NC(=O)[C@H](CC(N)=O)NC(=O)[C@H](CCCNC(=N)N)NC1=O)C(C)C)[C@@H](C)O [V220A] (Ac-RKALETLRRVGDGA[S5]RNH[S5]TAF-NH2; staple 15-19; N-terminus and C-terminus assumed) | Binds | – | Best overall binders to VLCAD | –
R215A: biotinylated MCL-1 SAHBD alanine point mutant R215A (RKALETLRAVGDGV[S5]RNH[S5]TAF; staple 15-19; also: biotinylated, place not given here) | weakly or not | – | – | –
